Laboratory results reported in the supplement of paper PMC9112550, “Optimization of the antimicrobial peptide Bac7 by deep mutational scanning” (BMC Biology, 2022).

tested on: Escherichia coli TOP10; test: shrunken log2 fold change of peptide-encoding DNA abundance (4.5 h post-induction vs induction); higher = less antimicrobial activity (less host growth inhibition); conditions: time post-induction: 4.5 h; library: site-saturation at positions 5, 18, 19, 20
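Also: peptides expressed intracellularly from a pBAD plasmid library in pooled LB shake-flask culture, induced with 0.3% L-arabinose, DNA abundance read by NGS, three biological replicates, DESeq2 with apeglm shrinkage.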

| Sequence | shrunken log2 fold change |
| --- | --- |
| RRIRGRPPRLPRPRPRPMKMPRP | 0.00988 |
| RRIRGRPPRLPRPRPRPMKRPRP | 0.343 |
| RRIRGRPPRLPRPRPRPMLFPRP | 0.935 |
| RRIRGRPPRLPRPRPRPMMQPRP | 1 |
| RRIRGRPPRLPRPRPRPMMYPRP | 0.163 |
| RRIRGRPPRLPRPRPRPMQFPRP | 0.184 |
| RRIRGRPPRLPRPRPRPMSQPRP | 0.213 |
| RRIRGRPPRLPRPRPRPMWPPRP | 1.07 |
| RRIRGRPPRLPRPRPRPMWSPRP | 0.89 |
| RRIRGRPPRLPRPRPRPMYPPRP | 0.244 |
| RRIRGRPPRLPRPRPRPNAYPRP | 0.426 |
| RRIRGRPPRLPRPRPRPNDMPRP | -0.0212 |
| RRIRGRPPRLPRPRPRPNFFPRP | 0.122 |
| RRIRGRPPRLPRPRPRPNFVPRP | -0.0668 |
| RRIRGRPPRLPRPRPRPNGYPRP | -0.00669 |
| RRIRGRPPRLPRPRPRPNHMPRP | -0.0194 |
| RRIRGRPPRLPRPRPRPNIAPRP | 0.197 |
| RRIRGRPPRLPRPRPRPNIKPRP | 0.136 |
| RRIRGRPPRLPRPRPRPNINPRP | 0.337 |
| RRIRGRPPRLPRPRPRPNKSPRP | 0.96 |
| RRIRGRPPRLPRPRPRPNKYPRP | -0.0952 |
| RRIRGRPPRLPRPRPRPNLAPRP | 0.961 |
| RRIRGRPPRLPRPRPRPNMVPRP | -0.00462 |
| RRIRGRPPRLPRPRPRPNQKPRP | 0.0822 |
| RRIRGRPPRLPRPRPRPNRDPRP | 0.0612 |

| Sequence | shrunken log2 fold change |
| --- | --- |
| RRIRGRPPRLPRPRPRPNRIPRP | 0.281 |
| RRIRGRPPRLPRPRPRPNTDPRP | 0.197 |
| RRIRGRPPRLPRPRPRPNTKPRP | -0.066 |
| RRIRGRPPRLPRPRPRPNTLPRP | -0.145 |
| RRIRGRPPRLPRPRPRPNVDPRP | 0.715 |
| RRIRGRPPRLPRPRPRPNYCPRP | 0.00136 |
| RRIRGRPPRLPRPRPRPNYEPRP | 0.161 |
| RRIRGRPPRLPRPRPRPPAAPRP | 1.63 |
| RRIRGRPPRLPRPRPRPPAVPRP | 1.27 |
| RRIRGRPPRLPRPRPRPPCGPRP | 0.554 |
| RRIRGRPPRLPRPRPRPPDAPRP | 1.45 |
| RRIRGRPPRLPRPRPRPPDPPRP | 1.57 |
| RRIRGRPPRLPRPRPRPPFDPRP | 0.835 |
| RRIRGRPPRLPRPRPRPPFFPRP | 0.851 |
| RRIRGRPPRLPRPRPRPPFWPRP | 1.09 |
| RRIRGRPPRLPRPRPRPPHMPRP | 0.489 |
| RRIRGRPPRLPRPRPRPPIYPRP | 0.132 |
| RRIRGRPPRLPRPRPRPPMCPRP | 0.525 |
| RRIRGRPPRLPRPRPRPPPFPRP | 0.887 |
| RRIRGRPPRLPRPRPRPPRFPRP | 1.04 |
| RRIRGRPPRLPRPRPRPPRVPRP | 1.15 |
| RRIRGRPPRLPRPRPRPPSHPRP | 0.597 |
| RRIRGRPPRLPRPRPRPPSNPRP | 0.374 |
| RRIRGRPPRLPRPRPRPPSWPRP | 1.24 |
| RRIRGRPPRLPRPRPRPPVCPRP | 0.213 |

| Sequence | shrunken log2 fold change |
| --- | --- |
| RRIRGRPPRLPRPRPRPPVSPRP | 0.604 |
| RRIRGRPPRLPRPRPRPPWGPRP | 0.651 |
| RRIRGRPPRLPRPRPRPPWPPRP | 0.871 |
| RRIRGRPPRLPRPRPRPQCRPRP | 0.0701 |
| RRIRGRPPRLPRPRPRPQDMPRP | 0.0811 |
| RRIRGRPPRLPRPRPRPQDRPRP | 0.297 |
| RRIRGRPPRLPRPRPRPQEGPRP | 0.0358 |
| RRIRGRPPRLPRPRPRPQFLPRP | -0.0259 |
| RRIRGRPPRLPRPRPRPQGRPRP | 0.553 |
| RRIRGRPPRLPRPRPRPQHMPRP | 0.231 |
| RRIRGRPPRLPRPRPRPQIDPRP | 0.565 |
| RRIRGRPPRLPRPRPRPQIFPRP | -0.0563 |
| RRIRGRPPRLPRPRPRPQIMPRP | 0.173 |
| RRIRGRPPRLPRPRPRPQIYPRP | 0.185 |
| RRIRGRPPRLPRPRPRPQKEPRP | 0.0631 |
| RRIRGRPPRLPRPRPRPQKGPRP | 0.0565 |
| RRIRGRPPRLPRPRPRPQLFPRP | 0.838 |
| RRIRGRPPRLPRPRPRPQMQPRP | 1.04 |
| RRIRGRPPRLPRPRPRPQNAPRP | 0.00487 |
| RRIRGRPPRLPRPRPRPQPIPRP | 0.114 |
| RRIRGRPPRLPRPRPRPQQDPRP | 0.357 |
| RRIRGRPPRLPRPRPRPQQGPRP | 0.0431 |
| RRIRGRPPRLPRPRPRPQRHPRP | 0.338 |
| RRIRGRPPRLPRPRPRPQTGPRP | 0.162 |
| RRIRGRPPRLPRPRPRPQTKPRP | 0.8 |
